Square brackets hold non-standard residues; d marks the D form. Ends that are not written are not given here. pT = C[C@@H](OP(=O)(O)O)[C@H](N)C(=O)O

B1: INCENP^1-80 (recombinant) (domain or fragment, human, UniProt Q9NQS7 1-80, looked up)
chain: MGTTAPGPIHLLELCDQKLMEFLCNMDNKDLVWLEEIQEEAERMFTREFSKEPELMPKTPSQKNRRKKRRISYVQDENRD
notes: INCENP, human, residues 1-80; Subunit in the rows of two; also called I^80; source: E. coli BL21-CodonPlus (DE3)-RIL, purified within the complex; not shown: His6, N-terminal, cleaved; GST, N-terminal, cleaved
B2: GFP-MKLP2 Δ636-652 (natural protein, human, UniProt O95235 1-890, looked up)
chain: MSQGILSPPAGLLSDDDVVVSPMFESTAADLGSVVRKNLLSDCSVVSTSLEDKQQVPSEDSMEKVKVYLRVRPLLPSELERQEDQGCVRIENVETLVLQAPKDSFALKSNERGIGQATHRFTFSQIFGPEVGQASFFNLTVKEMVKDVLKGQNWLIYTYGVTNSGKTHTIQGTIKDGGILPRSLALIFNSLQGQLHPTPDLKPLLSNEVIWLDSKQIRQEEMKKLSLLNGGLQEEELSTSLKRSVYIESRIGTSTSFDSGIAGLSSISQCTSSSQLDETSHRWAQPDTAPLPVPANIRFSIWISFFEIYNELLYDLLEPPSQQRKRQTLRLCEDQNGNPYVKDLNWIHVQDAEEAWKLLKVGRKNQSFASTHLNQNSSRSHSIFSIRILHLQGEGDIVPKISELSLCDLAGSERCKDQKSGERLKEAGNINTSLHTLGRCIAALRQNQQNRSKQNLVPFRDSKLTRVFQGFFTGRGRSCMIVNVNPCASTYDETLHVAKFSAIASQLVHAPPMQLGFPSLHSFIKEHSLQVSPSLEKGAKADTGLDDDIENEADISMYGKEELLQVVEAMKTLLLKERQEKLQLEMHLRDEICNEMVEQMQQREQWCSEHLDTQKELLEEMYEEKLNILKESLTSALLQEARQQSVAHQQSGSELALRRSQRLAASASTQQLQEVKAKLQQCKAELNSTTEELHKYQKMLEPPPSAKPFTIDVDKKLEEGQKNIRLLRTELQKLGESLQSAERACCHSTGAGKLRQALTTCDDILIKQDQTLAELQNNMVLVKLDLRKKAACIAEQYHTVLKLQGQVSAKKRLGTNQENQQPNQQPPGKKPFLRNLLPRTPTCQSSTDCSPYARILRSRRSPLLKSGPFGKKY
notes: source: HeLa, transfected, in lysate; not shown: EGFP, N-terminal, kept
B3: MKLP2^557-668 (domain or fragment, human, UniProt O95235 557-668, looked up)
chain: MYGKEELLQVVEAMKTLLLKERQEKLQLEMHLRDEICNEMVEQMQQREQWCSEHLDTQKELLEEMYEEKLNILKESLTSFYQEEIQERDEKIEELEALLQEARQQSVAHQQS
notes: source: E. coli BL21-CodonPlus (DE3)-RIL, purified (Glutathione Sepharose, SEC); not shown: His6, N-terminal, cleaved; GST, N-terminal, cleaved
B4: borealin^10-109 (domain or fragment, human, UniProt Q53HL2 10-109, looked up)
chain: VAKTNSLRRRKLASFLKDFDREVEIRIKQIESDRQNLLKEVDNLYNIEILRLPKALREMNWLDYFALGGNKQALEEAATADLDITEINKLTAEAIQTPLK
notes: borealin, human, residues 10-109; Subunit in the rows of two; source: E. coli BL21-CodonPlus (DE3)-RIL, co-expressed with survivin (pETDuet-1), purified within the complex
B5: H3pT3 (1–12) phosphopeptide (peptide)
peptide: AR[pT]KQTARKSTG
notes: also called pH3T3; H3pT3 phosphopeptide; source: synthetic peptide (Peptide Protein Research Ltd)
B6: H3 (1–12) peptide (peptide)
peptide: ARTKQTARKSTG
notes: histone H3 residues 1-12; also called H3T3 nonphosphopeptide; nonphosphorylated H3 peptide; source: synthetic peptide (Peptide Protein Research Ltd)

Data set [1] deals with T1, survivin (full-length, recombinant, as subunit of the CPI complexes) (human, UniProt O15392 1-142).
T1 construct: survivin, human, full length; Never handled alone; stands for the subunit in the rows of two; source: E. coli BL21-CodonPlus (DE3)-RIL, co-expressed with borealin (pETDuet-1), purified within the complex
T1 sequence (O15392 whole entry, one chain of several): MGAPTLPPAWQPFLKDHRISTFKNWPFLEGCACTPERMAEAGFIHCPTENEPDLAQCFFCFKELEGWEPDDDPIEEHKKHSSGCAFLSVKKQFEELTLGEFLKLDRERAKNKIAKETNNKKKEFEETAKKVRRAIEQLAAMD
Description: SEC-MALS; samples at 1 mg/ml on Superose 6 10/300 GL, room temperature; 100 mM NaCl, 20 mM Tris-HCl pH 8.0, 1 mM DTT, 10% glycerol. Particulars: both partners purified. A general note: Size exclusion chromatography separates by hydrodynamic size, large species first.

The data set “borealin^10-109” addresses B4. The description is as above. To be noted: both partners purified.
Data set [2] deals with the molecule itself. Put plainly: SEC; 1 mg lysate of nocodazole-arrested HeLa cells on Superose 6 10/300 at 4°C; fractions Western blotted for MKLP2 and GFP; size from calibration standards.
Data set [3] deals with the molecule itself. Description: SEC-MALS; samples at 1 mg/ml on Superose 6 10/300 GL, room temperature; 100 mM NaCl, 20 mM Tris-HCl pH 8.0, 1 mM DTT, 10% glycerol.
In data set [4] the target is T2, CPI80^(Survivin E65A-H80A) (human, UniProt O15392 1-142; Q9NQS7 1-80; Q53HL2 10-109, E65A | H80A).
T2 construct: survivin, human, E65A H80A; INCENP, human, residues 1-80; borealin, human, residues 10-109 as in CPI80; not restated for this mutant; also called CPI80^E65A-H80A; survivin^E65A-H80A CPI80; source: E. coli BL21-CodonPlus (DE3)-RIL, purified (Glutathione Sepharose, SEC); not shown: His6, N-terminal, cleaved; GST, N-terminal, cleaved; copies: + +
T2 sequence (O15392 whole entry E65A/H80A, the tested form may be a part, one chain of several): as the sequence (O15392 whole entry, one chain of several) above, with E65A, H80A counted along it
Description: SEC; CPC variants and MKLP2^557-668 mixed 1:1, 30 min on ice in 100 mM NaCl, 20 mM Tris-HCl pH 8.0, 1 mM DTT, 10% glycerol; analytical Superdex 200 increase 10/300 at 4°C; fractions on stained gels. Particulars: both partners purified.

In data set [5] the target is CPI58 as used in ITC, SEC and ATPase assays (survivin, borealin, INCENP 1–58) (human, UniProt O15392 1-142; Q9NQS7 1-58; Q53HL2 1-280). Put plainly: ITC; 400 µM peptide injected into 50 µM protein; 100 mM NaCl, 20 mM Tris-HCl pH 7.2, 1 mM DTT; 25°C; 1:1 binding model. To be noted: both partners purified.
Data set [6] has as its target T3, MKLP2^557-668:CPI80 (survivin, INCENP^1-80, borealin^10-109) (human, UniProt O95235 557-668; O15392 1-142; Q9NQS7 1-80; Q53HL2 10-109).
T3 construct: survivin, human; INCENP, human, residues 1-80; borealin, human, residues 10-109; also called MKLP2:CPI80; not shown: His6, N-terminal, cleaved; GST, N-terminal, cleaved; copies: 2 + 2 + 2 + 2
The description is as above. Particulars: both partners purified.

The target of data set [7] is T4, CPI80 (survivin, INCENP^1-80, borealin^10-109) (human, UniProt O15392 1-142; Q9NQS7 1-80; Q53HL2 10-109).
T4 construct: survivin, human; INCENP, human, residues 1-80; borealin, human, residues 10-109; 1:1:1 trimer by SEC-MALS; also called WT CPI80; source: E. coli BL21-CodonPlus (DE3)-RIL, purified (Glutathione Sepharose, SEC); not shown: His6, N-terminal, cleaved; GST, N-terminal, cleaved; copies: 1 + 1 + 1
T4 sequence (O15392 whole entry, chain 1 of 3, one chain of several, the tested form may be a part): as the sequence (O15392 whole entry, one chain of several) above
The data set is described as above. Particulars: both partners purified.

Data set [8] concerns the target T5, CPI80^RRKKRR (CPI80 with the INCENP RRKKRR-motif replaced with alanine residues) (human, UniProt O15392 1-142; Q9NQS7 1-80; Q53HL2 10-109, RRKKRR to hexa-alanine).
T5 construct: survivin, human; INCENP, human, residues 1-80 with RRKKRR to hexa-alanine; borealin, human, residues 10-109 as in CPI80; not restated for this mutant; also called CPI80^RRKKRR mutant; source: E. coli BL21-CodonPlus (DE3)-RIL, purified (Glutathione Sepharose, SEC); not shown: His6, N-terminal, cleaved; GST, N-terminal, cleaved; copies: + +
Described as above. Particulars: both partners purified.

The target in data set [9] is CPI58 as used in ITC, SEC and ATPase assays (survivin, borealin, INCENP 1–58) (human, UniProt O15392 1-142; Q9NQS7 1-58; Q53HL2 1-280, Structural Zn2+ on survivin C57/C60/H77/C84. Survivin is taken from the authors' construct entity (entity number = survivin number + 2; leading GP tag scar left out). Borealin 10-109 is inferred from). Described as above. Particulars: both partners purified.
Chain of CPI58 as used in ITC, SEC and ATPase assays (survivin, borealin, INCENP 1–58) (human, UniProt O15392 1-142; Q9NQS7 1-58; Q53HL2 1-280, Structural Zn2+ on survivin C57/C60/H77/C84. Survivin is taken from the authors' construct entity (entity number = survivin number + 2; leading GP tag scar left out). Borealin 10-109 is inferred from) (A2SUH6 whole entry, chain 1 of 3, one chain of several): as the sequence (O15392 whole entry, one chain of several) above

T5 sequence (O15392 whole entry, change not shown, chain 1 of 3, one chain of several, the tested form may be a part): as the sequence (O15392 whole entry, one chain of several) above
T5 sequence (Q9NQS7 other isoform, or with tags, fused parts or gaps RRKKRR to hexa-alanine | RRKKRR to hexa-alanine, chain 2 of 3, one chain of several): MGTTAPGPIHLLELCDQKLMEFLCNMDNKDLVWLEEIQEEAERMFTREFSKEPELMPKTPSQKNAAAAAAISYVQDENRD

Regarding B1, the “stoichiometry N” value (in [1]; with borealin^10-109) was 1 in each case.
As for B2, the “stoichiometry N” value in data set [2] was determined as 2.
With B3, the “stoichiometry N” value in data set [3] amounted to 2. The binding result in data set [4] was “binds”.
As for B4, the “stoichiometry N” value in [1] amounted to 1.
On to B5, for which the Kd in data set [5] is 800 nM; in data set [6], less than 1000 nM; in [7] it was 1100 nM; in [8], 600 ± 300 nM.
Regarding B6, the equilibrium dissociation constant (Kd) in [9] was 5600 nM; in data set [6] it was 2800 ± 300 nM; in [7] it was 4600 nM; in [8], 3300 ± 500 nM.

Usually stoichiometry N stands for a count of units in the complex or per binding partner. For orientation: Kd means the concentration at which binding is half-saturated.

(Values after paper PMC7337490, “Molecular basis of MKLP2-dependent Aurora B transport from chromatin to the anaphase central spindle” (The Journal of Cell Biology, 2020).)
